Data: US20260217835
Residue numbers refer to the chain shown, from its start. Numbers in names are those of the source.

T1: IgG1 Fc fragment with CH3 modification E356K/K392D/D399K/K409D (SEQ ID NO: 75)
T1 chain: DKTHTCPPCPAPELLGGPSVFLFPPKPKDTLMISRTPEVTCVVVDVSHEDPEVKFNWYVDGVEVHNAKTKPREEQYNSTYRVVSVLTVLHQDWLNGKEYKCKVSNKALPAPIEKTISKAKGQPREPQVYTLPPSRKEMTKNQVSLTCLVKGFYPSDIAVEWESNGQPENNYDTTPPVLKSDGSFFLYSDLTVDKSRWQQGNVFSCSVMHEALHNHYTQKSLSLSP

T2: IgG1 Fc fragment with CH3 modification T366W/L368A/Y407V (SEQ ID NO: 65)
T2 chain: T1 chain with K136E, T146W, L148A, D172K, K179D, Y187V, D189K

T3: IgG1 Fc fragment with CH3 modification E345R/Q347R/K360D/T366V/D399M/Y407A/K409V (SEQ ID NO: 74)
T3 chain: T1 chain with E125R, Q127R, K136E, K140D, T146V, D172K, K179M, Y187A, D189V

T4: IgG1 Fc fragment with CH3 modification T350V/L351Y/T366L/K392L/T394W/F405A/Y407V (SEQ ID NO: 77)
T4 chain: T1 chain with T130V, L131Y, K136E, T146L, D172L, T174W, K179D, F185A, Y187V, D189K

T5: IgG1 Fc fragment with CH3 modification E356K/K392D/D399K/K439E (SEQ ID NO: 71)
T5 chain: T1 chain with D189K, K219E

T6: IgG1 Fc fragment with CH3 modification E356K/D399K/K409E/K439E (SEQ ID NO: 68)
T6 chain: T1 chain with D172K, D189E, K219E

T7: IgG1 Fc fragment with CH3 modification E345R/K360E/D399M/Y407A/K409V (SEQ ID NO: 76)
T7 chain: T1 chain with E125R, K136E, K140E, D172K, K179M, Y187A, D189V

T8: IgG1 Fc fragment with CH3 modification Q347E/S354Y/T366Y/Y407T (SEQ ID NO: 69)
T8 chain: T1 chain with Q127E, S134Y, K136E, T146Y, D172K, K179D, Y187T, D189K

B1: full-length IgG heavy chain with CH3 modification Y349C/E357C/K392D/D399K (SEQ ID NO: 51), coexpressed with light chain SEQ ID NO: 61 (protein)
chain 1: QVQLQESGPGLVRPSQTLSLTCTVSGYSITSDHAWSWVRQPPGRGLEWIGYISYSGITTYNPSLKSRVTMLRDTSKNQFSLRLSSVTAADTAVYYCARSLARTTAMDYWGQGSLVTVSSASTKGPSVFPLAPSSKSTSGGTAALGCLVKDYFPEPVTVSWNSGALTSGVHTFPAVLQSSGLYSLSSVVTVPSSSLGTQTYICNVNHKPSNTKVDKRVEPKSCDKTHTCPPCPAPELLGGPSVFLFPPKPKDTLMISRTPEVTCVVVDVSHEDPEVKFNWYVDGVEVHNAKTKPREEQYNSTYRVVSVLTVLHQDWLNGKEYKCKVSNKALPAPIEKTISKAKGQPREPQVCTLPPSRECMTKNQVSLTCLVKGFYPSDIAVEWESNGQPENNYDTTPPVLKSDGSFFLYSKLTVDKSRWQQGNVFSCSVMHEALHNHYTQKSLSLSP
chain 2: not shown
B2: full-length IgG heavy chain with CH3 modification E345R/Q347R/K360D/T366V/D399M/Y407A/K409V (SEQ ID NO: 55), coexpressed with light chain SEQ ID NO: 61 (protein)
chain 1: B1 chain 1 with E347R, Q349R, C351Y, C359E, K362D, T368V, D394K, K401M, Y409A, K411V
chain 2: not shown
B3: full-length IgG heavy chain with CH3 modification E356K/K392D/D399K/K409D (SEQ ID NO: 56), coexpressed with light chain SEQ ID NO: 61 (protein)
chain 1: B1 chain 1 with C351Y, E358K, C359E, K411D
chain 2: not shown
B4: full-length IgG heavy chain with CH3 modification E345R/K360E/D399M/Y407A/K409V (SEQ ID NO: 58), coexpressed with light chain SEQ ID NO: 61 (protein)
chain 1: B1 chain 1 with E347R, C351Y, C359E, K362E, D394K, K401M, Y409A, K411V
chain 2: not shown
B5: full-length IgG heavy chain with CH3 modification T350V/L351Y/T366L/K392L/T394W/F405A/Y407V (SEQ ID NO: 60), coexpressed with light chain SEQ ID NO: 61 (protein)
chain 1: B1 chain 1 with C351Y, T352V, L353Y, C359E, T368L, D394L, T396W, K401D, F407A, Y409V
chain 2: not shown

Target: T1, IgG1 Fc fragment with CH3 modification …
Test: SEC area ratio of heteromultimer after coexpression of full-length heavy chain, light chain and Fc fragment in Expi293F

Row | Protein | heterodimer formation ratio (%)
1 | B1 | 0
2 | B2 | 0
3 | B3 | 56
4 | B4 | 0
5 | B5 | 0

Target: T2, IgG1 Fc fragment with CH3 modification …
Test: as above

Row | Protein | heterodimer formation ratio (%)
6 | B1 | 0
7 | B2 | 0
8 | B3 | 0
9 | B4 | 0
10 | B5 | 0

Target: T3, IgG1 Fc fragment with CH3 modification …
Test: as above

Row | Protein | heterodimer formation ratio (%)
11 | B1 | 2
12 | B2 | 52
13 | B3 | 0
14 | B4 | 51
15 | B5 | 0

target: IgG1 Fc fragment with CH3 modification T394W/F405A (SEQ ID NO: 64); test: as above

Row | Protein | heterodimer formation ratio (%)
16 | B1 | 0
17 | B2 | 0
18 | B3 | 0
19 | B4 | 0
20 | B5 | 6

Target: T4, IgG1 Fc fragment with CH3 modification …
Test: as above

Row | Protein | heterodimer formation ratio (%)
21 | B1 | 0
22 | B2 | 0
23 | B3 | 0
24 | B4 | 0
25 | B5 | 51

target: IgG1 Fc fragment with CH3 modification T394F/F405A (SEQ ID NO: 67); test: as above

Row | Protein | heterodimer formation ratio (%)
26 | B1 | 0
27 | B2 | 0
28 | B3 | 0
29 | B4 | 0
30 | B5 | 4

Target: T5, IgG1 Fc fragment with CH3 modification …
Test: as above

Row | Protein | heterodimer formation ratio (%)
31 | B1 | 0
32 | B2 | 0
33 | B3 | 60
34 | B4 | 0
35 | B5 | 0

Target: T6, IgG1 Fc fragment with CH3 modification …
Test: as above

Row | Protein | heterodimer formation ratio (%)
36 | B1 | 0
37 | B2 | 0
38 | B3 | 53
39 | B4 | 0
40 | B5 | 0

Target: T7, IgG1 Fc fragment with CH3 modification …
Test: as above

Row | Protein | heterodimer formation ratio (%)
41 | B1 | 0
42 | B2 | 49
43 | B3 | 0
44 | B4 | 51
45 | B5 | 0

target: IgG1 Fc fragment, WT (no CH3 modification), SEQ ID NO: 63 in Table 5; test: as above

Row | Protein | heterodimer formation ratio (%)
46 | B1 | 0
47 | B2 | 0
48 | B3 | 0
49 | B4 | 0
50 | B5 | 0

Target: T8, IgG1 Fc fragment with CH3 modification …
Test: as above

Row | Protein | heterodimer formation ratio (%)
51 | B1 | 0
52 | B2 | 0
53 | B3 | 0
54 | B4 | 0
55 | B5 | 0
